{"source": "paper PMC8523171", "about": "“The cooperative binding of TDP-43 to GU-rich RNA repeats antagonizes TDP-43 aggregation”", "key": {"[1]": {"target": "TDP-43 RRM1-2 (human) (UniProt Q13148)", "sequence (Q13148 101-277)": "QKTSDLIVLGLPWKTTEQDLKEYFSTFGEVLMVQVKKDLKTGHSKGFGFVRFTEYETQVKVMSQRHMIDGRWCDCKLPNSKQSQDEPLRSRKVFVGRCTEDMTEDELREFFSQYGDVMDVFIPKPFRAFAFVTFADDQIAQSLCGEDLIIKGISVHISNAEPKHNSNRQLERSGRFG", "assay": "ITC", "details": "apparent, one set of sites model, ITC: 15 mM phosphate pH 6.8, 25 mM KCl, 1 mM TCEP, 25 C, NMR: same buffer, 298 K (SEA-HSQC 310 K), EMSA: 20 mM HEPES pH 7.6, 25 mM KCl, 2 mM MgCl2 …"}, "[2]": {"target": "T1, TDP-43 RRM1-2 (human, UniProt Q13148 101-277)", "T1 sequence (Q13148 101-277)": "as above", "assay": "NMR; additional CSPs and peak broadening; ITC: 15 mM phosphate pH 6.8, 25 mM KCl, 1 mM TCEP, 25 C; NMR: same buffer, 298 K (SEA-HSQC 310 K); EMSA: 20 mM HEPES pH 7.6, 25 mM KCl, 1 mM TCEP, 2 mM MgCl2, room temperature, 10 pmol DNA in 10 uL", "details": "protein: recombinant; tags: His6 cleaved by TEV; residual N-terminal GSH (180 aa); single strand"}, "[3]": {"target": "T1, TDP-43 RRM1-2", "assay": "NMR and SAXS; same dimer interface as with (GU)12; ITC: 15 mM phosphate pH 6.8, 25 mM KCl, 1 mM TCEP, 25 C; NMR: same buffer, 298 K (SEA-HSQC 310 K); EMSA: 20 mM HEPES pH 7.6, 25 mM KCl, 1 mM TCEP, 2 mM MgCl2, room temperature, 10 pmol DNA in 10 uL", "details": "protein: recombinant; tags: His6 cleaved by TEV; residual N-terminal GSH (180 aa); single strand"}, "[4]": {"target": "T1, TDP-43 RRM1-2", "assay": "NMR and SAXS; two RRM1-2 bound; ITC: 15 mM phosphate pH 6.8, 25 mM KCl, 1 mM TCEP, 25 C; NMR: same buffer, 298 K (SEA-HSQC 310 K); EMSA: 20 mM HEPES pH 7.6, 25 mM KCl, 1 mM TCEP, 2 mM MgCl2, room temperature, 10 pmol DNA in 10 uL", "details": "protein: recombinant; tags: His6 cleaved by TEV; residual N-terminal GSH (180 aa); single strand"}, "[5]": {"target": "T2, TDP-43 RRM1 (human, UniProt Q13148 101-192)", "T2 sequence (Q13148 101-192)": "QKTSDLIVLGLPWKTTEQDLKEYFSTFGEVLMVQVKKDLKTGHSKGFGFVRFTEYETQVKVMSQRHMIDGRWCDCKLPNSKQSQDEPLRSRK", "assay": "ITC; Kd1; ITC: 15 mM phosphate pH 6.8, 25 mM KCl, 1 mM TCEP, 25 C; NMR: same buffer, 298 K (SEA-HSQC 310 K); EMSA: 20 mM HEPES pH 7.6, 25 mM KCl, 1 mM TCEP, 2 mM MgCl2, room temperature, 10 pmol DNA in 10 uL", "details": "protein: recombinant; tags: His6 cleaved by TEV; chain copies: 2; single strand"}, "[6]": {"target": "T1, TDP-43 RRM1-2", "assay": "ITC; Kd1, first monomer; ITC: 15 mM phosphate pH 6.8, 25 mM KCl, 1 mM TCEP, 25 C; NMR: same buffer, 298 K (SEA-HSQC 310 K); EMSA: 20 mM HEPES pH 7.6, 25 mM KCl, 1 mM TCEP, 2 mM MgCl2, room temperature, 10 pmol DNA in 10 uL", "details": "protein: recombinant; tags: His6 cleaved by TEV; residual N-terminal GSH (180 aa); single strand"}, "[7]": {"target": "T1, TDP-43 RRM1-2", "assay": "NMR; single RRM1-2 bound; ITC: 15 mM phosphate pH 6.8, 25 mM KCl, 1 mM TCEP, 25 C; NMR: same buffer, 298 K (SEA-HSQC 310 K); EMSA: 20 mM HEPES pH 7.6, 25 mM KCl, 1 mM TCEP, 2 mM MgCl2, room temperature, 10 pmol DNA in 10 uL", "details": "protein: recombinant; tags: His6 cleaved by TEV; residual N-terminal GSH (180 aa); single strand"}, "[8]": {"target": "TDP-43 RRM2 (human, UniProt Q13148 176-277)", "sequence (Q13148 176-277)": "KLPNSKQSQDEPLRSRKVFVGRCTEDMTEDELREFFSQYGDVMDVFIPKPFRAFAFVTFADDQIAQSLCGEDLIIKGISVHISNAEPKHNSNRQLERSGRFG", "assay": "ITC; two protein copies; Kd values not in material; ITC: 15 mM phosphate pH 6.8, 25 mM KCl, 1 mM TCEP, 25 C; NMR: same buffer, 298 K (SEA-HSQC 310 K); EMSA: 20 mM HEPES pH 7.6, 25 mM KCl, 1 mM TCEP, 2 mM MgCl2, room temperature, 10 pmol DNA in 10 uL", "details": "protein: recombinant; tags: His6 cleaved by TEV; chain copies: 2; single strand"}, "[9]": {"target": "T1, TDP-43 RRM1-2", "assay": "ITC; ITC: 15 mM phosphate pH 6.8, 25 mM KCl, 1 mM TCEP, 25 C; NMR: same buffer, 298 K (SEA-HSQC 310 K); EMSA: 20 mM HEPES pH 7.6, 25 mM KCl, 1 mM TCEP, 2 mM MgCl2, room temperature, 10 pmol DNA in 10 uL", "details": "protein: recombinant; tags: His6 cleaved by TEV; residual N-terminal GSH (180 aa); single strand"}, "[10]": {"target": "T2, TDP-43 RRM1", "assay": "ITC; ITC: 15 mM phosphate pH 6.8, 25 mM KCl, 1 mM TCEP, 25 C; NMR: same buffer, 298 K (SEA-HSQC 310 K); EMSA: 20 mM HEPES pH 7.6, 25 mM KCl, 1 mM TCEP, 2 mM MgCl2, room temperature, 10 pmol DNA in 10 uL", "details": "protein: recombinant; tags: His6 cleaved by TEV; chain copies: 2; single strand"}}}
{"molecule": "CLIP34nt (DNA)", "values": [{"measurement": "Kd", "setting": "[1]", "result": 0.27, "unit": "µM"}]}
{"molecule": "GUGUGUGUGUGUGUGUGUGUGUGUGUGUGUGUGUGUGUGUGUGUGUGU (ssRNA)", "note": "[(GU)24]", "values": [{"measurement": "binding result", "setting": "[2]", "result": "binds"}]}
{"molecule": "GUGUGAAUGAAUGUGUGUGUGUGU (ssRNA)", "note": "[AUG12-(GU)6]", "values": [{"measurement": "binding result", "setting": "[3]", "result": "binds"}]}
{"molecule": "GUGUGUGUGUGUGUGUGUGUGUGU (ssRNA)", "note": "[(GU)12]", "values": [{"measurement": "binding result", "setting": "[4]", "result": "binds"}]}
{"molecule": "GTGTGTGTGTGTGTGTGTGTGTGT (ssDNA)", "note": "[(GT)12]", "values": [{"measurement": "Kd", "setting": "[5]", "result": 2.3, "unit": "µM"}, {"measurement": "Kd", "setting": "[6]", "result": 0.051, "unit": "µM"}]}
{"molecule": "GUGUGUGUGUGU (ssRNA)", "note": "[(GU)6]", "values": [{"measurement": "binding result", "setting": "[7]", "result": "binds"}]}
{"molecule": "GTGTGTGTGTGT (ssDNA)", "note": "[(GT)6]", "values": [{"measurement": "binding signal", "setting": "[8]", "result": 0.05, "unit": "Kd1/Kd2 ratio"}, {"measurement": "Kd", "setting": "[5]", "result": 0.0844, "unit": "µM"}, {"measurement": "Kd", "setting": "[9]", "result": 0.0684, "unit": "µM"}]}
{"molecule": "GTGTGT (ssDNA)", "note": "[(GT)3]", "values": [{"measurement": "Kd", "setting": "[9]", "result": 2.2, "unit": "µM"}, {"measurement": "Kd", "setting": "[10]", "result": 0.929, "unit": "µM"}]}
